The source of these data is article PMC10786891, “Massively parallel profiling of RNA-targeting CRISPR-Cas13d”.

Sequences and labels used below:
T1: EsCas13d, nuclease-dead (Eubacterium siraeum, UniProt B0MS50, R295A;H300A;R849A;H854A)
T1 sequence: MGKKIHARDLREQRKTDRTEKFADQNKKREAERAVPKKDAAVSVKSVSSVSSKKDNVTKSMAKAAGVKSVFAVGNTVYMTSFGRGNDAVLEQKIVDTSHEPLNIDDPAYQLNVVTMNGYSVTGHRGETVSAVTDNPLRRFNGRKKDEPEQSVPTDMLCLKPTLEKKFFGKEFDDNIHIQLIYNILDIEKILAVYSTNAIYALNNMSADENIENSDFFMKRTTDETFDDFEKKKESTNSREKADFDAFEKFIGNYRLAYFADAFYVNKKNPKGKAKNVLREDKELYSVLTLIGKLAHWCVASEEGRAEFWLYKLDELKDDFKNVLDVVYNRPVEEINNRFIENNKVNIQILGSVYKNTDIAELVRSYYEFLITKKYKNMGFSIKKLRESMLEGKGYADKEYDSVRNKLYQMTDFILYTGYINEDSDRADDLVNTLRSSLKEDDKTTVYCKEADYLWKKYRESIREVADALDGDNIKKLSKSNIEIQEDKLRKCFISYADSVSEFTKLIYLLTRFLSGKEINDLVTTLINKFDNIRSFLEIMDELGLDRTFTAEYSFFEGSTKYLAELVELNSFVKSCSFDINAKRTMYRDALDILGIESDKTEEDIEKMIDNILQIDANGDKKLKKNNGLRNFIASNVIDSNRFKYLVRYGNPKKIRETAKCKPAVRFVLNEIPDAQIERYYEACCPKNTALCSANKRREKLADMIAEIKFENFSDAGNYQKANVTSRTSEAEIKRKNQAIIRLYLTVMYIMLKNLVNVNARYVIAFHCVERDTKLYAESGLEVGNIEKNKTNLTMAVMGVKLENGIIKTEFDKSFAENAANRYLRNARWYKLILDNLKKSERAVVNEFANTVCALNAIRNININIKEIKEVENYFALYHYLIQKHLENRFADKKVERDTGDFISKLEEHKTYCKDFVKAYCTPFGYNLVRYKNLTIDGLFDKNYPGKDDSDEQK

B1: target 1 insC 3' of 15,insC 3' of 8 (mixed)
RNA 1: CACCCGUGCAAAAAUGCAGGGGUCUAAAACUGAGCGGAUAACCUCUCUAUGG
RNA 2: GGGAAUGGAUCCACAUCUACGAAUUCGUACCAUAGAGCAGGUUAUCCCGCUCACCGAGAUCGGAAGAGCACACGU
B2: target 1 complement block 1-9 (mixed)
RNA 1: CACCCGUGCAAAAAUGCAGGGGUCUAAAACUGAGCGGAUAACCUCUCUAUGG
RNA 2: GGGAAUGGAUCCACAUCUACGAAUUCGUACCAUAGAGAGGUUUAGGCGAGUCCGAGAUCGGAAGAGCACACGU
B3: target 1 G17U,A20C (mixed)
RNA 1: CACCCGUGCAAAAAUGCAGGGGUCUAAAACUGAGCGGAUAACCUCUCUAUGG
RNA 2: GGGAAUGGAUCCACAUCUACGAAUUCGUACCCUAUAGAGGUUAUCCGCUCACCGAGAUCGGAAGAGCACACGU
B4: target 1 A20C,C21A (mixed)
RNA 1: CACCCGUGCAAAAAUGCAGGGGUCUAAAACUGAGCGGAUAACCUCUCUAUGG
RNA 2: GGGAAUGGAUCCACAUCUACGAAUUCGUACACUAGAGAGGUUAUCCGCUCACCGAGAUCGGAAGAGCACACGU
B5: target 1 insG 3' of 18,insA 3' of 12 (mixed)
RNA 1: CACCCGUGCAAAAAUGCAGGGGUCUAAAACUGAGCGGAUAACCUCUCUAUGG
RNA 2: GGGAAUGGAUCCACAUCUACGAAUUCGUACCAUAGGAGAGGAUUAUCCGCUCACCGAGAUCGGAAGAGCACACGU
B6: target 1 insA 3' of 19,insA 3' of 8 (mixed)
RNA 1: CACCCGUGCAAAAAUGCAGGGGUCUAAAACUGAGCGGAUAACCUCUCUAUGG
RNA 2: GGGAAUGGAUCCACAUCUACGAAUUCGUACCAUAAGAGAGGUUAUACCGCUCACCGAGAUCGGAAGAGCACACGU
B7: target 1 insG 3' of 19,insG 3' of 2 (mixed)
RNA 1: CACCCGUGCAAAAAUGCAGGGGUCUAAAACUGAGCGGAUAACCUCUCUAUGG
RNA 2: GGGAAUGGAUCCACAUCUACGAAUUCGUACCAUGAGAGAGGUUAUCCGCUCGACCGAGAUCGGAAGAGCACACGU
B8: target 1 C6G,G17A (mixed)
RNA 1: CACCCGUGCAAAAAUGCAGGGGUCUAAAACUGAGCGGAUAACCUCUCUAUGG
RNA 2: GGGAAUGGAUCCACAUCUACGAAUUCGUACCAUAAAGAGGUUAUCGGCUCACCGAGAUCGGAAGAGCACACGU
B9: target 1 insG 3' of 11,insG 3' of 3 (mixed)
RNA 1: CACCCGUGCAAAAAUGCAGGGGUCUAAAACUGAGCGGAUAACCUCUCUAUGG
RNA 2: GGGAAUGGAUCCACAUCUACGAAUUCGUACCAUAGAGAGGUGUAUCCGCUGCACCGAGAUCGGAAGAGCACACGU
B10: target 1 G13A,A20U (mixed)
RNA 1: CACCCGUGCAAAAAUGCAGGGGUCUAAAACUGAGCGGAUAACCUCUCUAUGG
RNA 2: GGGAAUGGAUCCACAUCUACGAAUUCGUACCUUAGAGAAGUUAUCCGCUCACCGAGAUCGGAAGAGCACACGU
B11: target 1 insA 3' of 22,insC 3' of 22 (mixed)
RNA 1: CACCCGUGCAAAAAUGCAGGGGUCUAAAACUGAGCGGAUAACCUCUCUAUGG
RNA 2: GGGAAUGGAUCCACAUCUACGAAUUCGUACACCAUAGAGAGGUUAUCCGCUCACCGAGAUCGGAAGAGCACACGU
B12: target 1 insA 3' of 12,insU 3' of 12 (mixed)
RNA 1: CACCCGUGCAAAAAUGCAGGGGUCUAAAACUGAGCGGAUAACCUCUCUAUGG
RNA 2: GGGAAUGGAUCCACAUCUACGAAUUCGUACCAUAGAGAGGAUUUAUCCGCUCACCGAGAUCGGAAGAGCACACGU
B13: target 1 A1G,A20C (mixed)
RNA 1: CACCCGUGCAAAAAUGCAGGGGUCUAAAACUGAGCGGAUAACCUCUCUAUGG
RNA 2: GGGAAUGGAUCCACAUCUACGAAUUCGUACCCUAGAGAGGUUAUCCGCUCGCCGAGAUCGGAAGAGCACACGU
B14: target 1 U8A,U11A (mixed)
RNA 1: CACCCGUGCAAAAAUGCAGGGGUCUAAAACUGAGCGGAUAACCUCUCUAUGG
RNA 2: GGGAAUGGAUCCACAUCUACGAAUUCGUACCAUAGAGAGGAUAACCGCUCACCGAGAUCGGAAGAGCACACGU
B15: target 1 C2A,U10G (mixed)
RNA 1: CACCCGUGCAAAAAUGCAGGGGUCUAAAACUGAGCGGAUAACCUCUCUAUGG
RNA 2: GGGAAUGGAUCCACAUCUACGAAUUCGUACCAUAGAGAGGUGAUCCGCUAACCGAGAUCGGAAGAGCACACGU
B16: target 1 U3A,G5C (mixed)
RNA 1: CACCCGUGCAAAAAUGCAGGGGUCUAAAACUGAGCGGAUAACCUCUCUAUGG
RNA 2: GGGAAUGGAUCCACAUCUACGAAUUCGUACCAUAGAGAGGUUAUCCCCACACCGAGAUCGGAAGAGCACACGU
B17: target 1 C2U,G15C (mixed)
RNA 1: CACCCGUGCAAAAAUGCAGGGGUCUAAAACUGAGCGGAUAACCUCUCUAUGG
RNA 2: GGGAAUGGAUCCACAUCUACGAAUUCGUACCAUAGACAGGUUAUCCGCUUACCGAGAUCGGAAGAGCACACGU
B18: target 1 insC 3' of 8,insG 3' of 6 (mixed)
RNA 1: CACCCGUGCAAAAAUGCAGGGGUCUAAAACUGAGCGGAUAACCUCUCUAUGG
RNA 2: GGGAAUGGAUCCACAUCUACGAAUUCGUACCAUAGAGAGGUUAUCCCGGCUCACCGAGAUCGGAAGAGCACACGU
B19: target 1 insU 3' of 17,insU 3' of 7 (mixed)
RNA 1: CACCCGUGCAAAAAUGCAGGGGUCUAAAACUGAGCGGAUAACCUCUCUAUGG
RNA 2: GGGAAUGGAUCCACAUCUACGAAUUCGUACCAUAGUAGAGGUUAUCUCGCUCACCGAGAUCGGAAGAGCACACGU
B20: target 1 insC 3' of 13,insC 3' of 5 (mixed)
RNA 1: CACCCGUGCAAAAAUGCAGGGGUCUAAAACUGAGCGGAUAACCUCUCUAUGG
RNA 2: GGGAAUGGAUCCACAUCUACGAAUUCGUACCAUAGAGAGCGUUAUCCGCCUCACCGAGAUCGGAAGAGCACACGU
B21: target 1 G5U,U11C (mixed)
RNA 1: CACCCGUGCAAAAAUGCAGGGGUCUAAAACUGAGCGGAUAACCUCUCUAUGG
RNA 2: GGGAAUGGAUCCACAUCUACGAAUUCGUACCAUAGAGAGGCUAUCCUCUCACCGAGAUCGGAAGAGCACACGU
B22: target 1 G13C,A14U (mixed)
RNA 1: CACCCGUGCAAAAAUGCAGGGGUCUAAAACUGAGCGGAUAACCUCUCUAUGG
RNA 2: GGGAAUGGAUCCACAUCUACGAAUUCGUACCAUAGAGUCGUUAUCCGCUCACCGAGAUCGGAAGAGCACACGU
B23: target 1 insA 3' of 15,insG 3' of 3 (mixed)
RNA 1: CACCCGUGCAAAAAUGCAGGGGUCUAAAACUGAGCGGAUAACCUCUCUAUGG
RNA 2: GGGAAUGGAUCCACAUCUACGAAUUCGUACCAUAGAGAAGGUUAUCCGCUGCACCGAGAUCGGAAGAGCACACGU
B24: target 1 insA 3' of 11,insG 3' of 1 (mixed)
RNA 1: CACCCGUGCAAAAAUGCAGGGGUCUAAAACUGAGCGGAUAACCUCUCUAUGG
RNA 2: GGGAAUGGAUCCACAUCUACGAAUUCGUACCAUAGAGAGGUAUAUCCGCUCAGCCGAGAUCGGAAGAGCACACGU
B25: target 1 insC 3' of 10,insC 3' of 8 (mixed)
RNA 1: CACCCGUGCAAAAAUGCAGGGGUCUAAAACUGAGCGGAUAACCUCUCUAUGG
RNA 2: GGGAAUGGAUCCACAUCUACGAAUUCGUACCAUAGAGAGGUUCAUCCCGCUCACCGAGAUCGGAAGAGCACACGU
B26: target 1 C7U,U8G (mixed)
RNA 1: CACCCGUGCAAAAAUGCAGGGGUCUAAAACUGAGCGGAUAACCUCUCUAUGG
RNA 2: GGGAAUGGAUCCACAUCUACGAAUUCGUACCAUAGAGAGGUUAGUCGCUCACCGAGAUCGGAAGAGCACACGU
B27: target 1 insA 3' of 11,insC 3' of 1 (mixed)
RNA 1: CACCCGUGCAAAAAUGCAGGGGUCUAAAACUGAGCGGAUAACCUCUCUAUGG
RNA 2: GGGAAUGGAUCCACAUCUACGAAUUCGUACCAUAGAGAGGUAUAUCCGCUCACCCGAGAUCGGAAGAGCACACGU

In the data set the target is T1, EsCas13d, nuclease-dead. The experiment in a line: crRNA (strand 1, pre-loaded); Mg2+; 40 mM Tris-HCl pH 7.5, 150 mM NaCl, 6 mM MgCl2, 1 mM DTT, 0.1% Tween-20, 0.2 mg/ml BSA; 25 C; 10 min per concentration, then washed. Particulars: tags: His6-TwinStrep-SUMO cleaved; N-terminal SNAP kept (SNAP-Surface 488); label: 3' end held by stalled T7 RNA polymerase.
As to B1, the Kd – broadly, the constant that tells how readily two partners part at equilibrium – was found to be 26.2 ± 2.8 nM.
B2 returned a Kd of 9.5 ± 0.7 nM. This Kd lies about 2.8-fold lower than the previous one.
The value for B3 was 88 ± 21 nM; that for B4 was 5.63 ± 0.34 nM; that for B5 was 73 ± 32 nM.
Take B6: the Kd was 31.1 ± 2.7 nM.
In turn, B7 yielded a Kd of 99 ± 26 nM.
Then B8, with 48 ± 6 nM.
The molecule B9 came in with a Kd of 42 ± 7 nM.
As for B10, the Kd came to 14.5 ± 2.2 nM.
The value for B11 was 8.92 ± 0.33 nM; that for B12 was 58 ± 16 nM.
Then B13, with 41 ± 4 nM.
Then B14, with 26.8 ± 1.9 nM; and B15, with 28 ± 1.9 nM; and B16, with 16.9 ± 0.9 nM.
Consider B17, for which the Kd is 49 ± 5 nM. This Kd lies about 2.9-fold higher than the previous one.
Then B18, with 17.1 ± 1.3 nM.
The value for B19 was 25.4 ± 1 nM.
The value for B20 was 16.9 ± 1.2 nM; that for B21 was 61 ± 8 nM; that for B22 was 13.1 ± 1.1 nM.
Molecule B23 showed a Kd of 5.1 ± 0.4 nM. Compared with the last molecule, the Kd is about 2.6-fold lower.
Molecule B24 gave a Kd of 20.8 ± 1 nM.
The value for B25 was 63 ± 13 nM; that for B26 was 14.2 ± 1 nM.
With B27, the Kd turned out to be 15.8 ± 1.1 nM.
